In US20080219999A1:

Biological target: Rhinovirus serotype HRV-39 (human rhinovirus 39)
Assay: cell-based or functional assay

Substance | IC50, cytopathic effect (CPE) assay on HeLa S3 cells [µg/mL] | fold lower IC50 than soluble ICAM-1, CPE assay on HeLa S3 cells [fold]
IC1-5D/IgA (ICAM/IgA fusion, gift of Dr. Tim Springer; Martin, et al., 1993) (from UniProt P05362 28-480; P01876 103-353) (Fc fusion) | 0.12 | 11.3
soluble human ICAM-1 (from UniProt P05362 28-480) | 1.35 | 
